In article PMC7395135, “Structures of the human mitochondrial ribosome bound to EF-G1 reveal distinct features of mitochondrial translation elongation” (Nature Communications, 2020):

Molecular target: mitoribosomal protein uL12m (human (endogenous in HEK293S GnTI), UniProt P52815 37-198)
Experiment: cryo-EM structure; 150 nM 55S mitoribosomes incubated with 5 uM EF-G1mt and 1 mM GMPPCP at 37 °C for 5 min in HEPES polymix buffer; three classes (I, II, III) from one sample
Settings: both partners purified

B1: human mitochondrial elongation factor G1 (natural protein)
chain: not shown
notes: also called EF-G1mt; source: E. coli BL21(DE3) (RIL), purified (Ni-NTA, cation exchange TSKgel SP-5PW)
Q: Does B1 bind?
A: binds
